What was measured:
[1] = molecular target: HLA-B*07:02; assay: IEDB peptide-MHC binding, purified MHC/competitive/fluorescence; ≥ and ≤ were set here for values at or beyond the usual limits of such assays
[2] = molecular target: HLA-B*08:01; assay: IEDB peptide-MHC binding, purified MHC/competitive/radioactivity; filed as Kd, often an IC50 or EC50 that approximates it; ≥ and ≤ were set here for values at or beyond the usual limits of such assays
[3] = molecular target: HLA-A*02:01; assay: as above
[4] = molecular target: HLA-A*02:17; assay: as above
[5] = molecular target: HLA-A*02:03; assay: as above; conditions: source organism: Dengue virus 3 Sri Lanka/1266/2000
[6] = molecular target: HLA-B*15:17; assay: IEDB peptide-MHC binding, purified MHC/direct/fluorescence; filed as Kd, often an IC50 or EC50 that approximates it; ≥ and ≤ were set here for values at or beyond the usual limits of such assays; conditions: source organism: Camelpox virus M-96
[7] = molecular target: HLA-B*15:01; assay: as above; conditions: source organism: Camelpox virus M-96
[8] = molecular target: HLA-A*31:01; assay: as above; conditions: source organism: Camelpox virus M-96
[9] = molecular target: HLA-B*57:01; assay: as above; conditions: source organism: Camelpox virus M-96
[10] = molecular target: HLA-B*27:05; assay: as above; conditions: source organism: Camelpox virus M-96
[11] = molecular target: HLA-A*02:01; assay: as above; conditions: source organism: Camelpox virus M-96
[12] = molecular target: HLA-B*58:01; assay: as above; conditions: source organism: Camelpox virus M-96
[13] = molecular target: HLA-B*46:01; assay: as above; conditions: source organism: Camelpox virus M-96
[14] = molecular target: HLA-A*26:01; assay: as above; conditions: source organism: Camelpox virus M-96
[15] = molecular target: HLA-B*40:01; assay: as above; conditions: source organism: Camelpox virus M-96
[16] = molecular target: HLA-A*69:01; assay: as above; conditions: source organism: Camelpox virus M-96
[17] = molecular target: HLA-B*48:01; assay: as above; conditions: source organism: Camelpox virus M-96
[18] = molecular target: HLA-A*03:01; assay: as above; conditions: source organism: Camelpox virus M-96
[19] = molecular target: HLA-A*01:01; assay: as above; conditions: source organism: Camelpox virus M-96
[20] = molecular target: HLA-A*11:01; assay: IEDB peptide-MHC binding, purified MHC/competitive/fluorescence; filed as Kd, often an IC50 or EC50 that approximates it; ≥ and ≤ were set here for values at or beyond the usual limits of such assays
[21] = molecular target: HLA-A*02:03; assay: as above; conditions: source organism: Variola virus
[22] = molecular target: HLA-A*68:01; assay: IEDB peptide-MHC binding, purified MHC/competitive/radioactivity; filed as Kd, often an IC50 or EC50 that approximates it; ≥ and ≤ were set here for values at or beyond the usual limits of such assays; conditions: source organism: Vaccinia virus WR
[23] = molecular target: HLA-A*33:01; assay: as above; conditions: source organism: Vaccinia virus WR
[24] = molecular target: HLA-B*08:01; assay: IEDB peptide-MHC binding, purified MHC/competitive/fluorescence; filed as Kd, often an IC50 or EC50 that approximates it; ≥ and ≤ were set here for values at or beyond the usual limits of such assays
[25] = molecular target: HLA-B*15:01; assay: as above; conditions: source organism: Vaccinia virus WR
[26] = molecular target: HLA-A*11:01; assay: IEDB peptide-MHC binding, purified MHC/competitive/fluorescence; ≥ and ≤ were set here for values at or beyond the usual limits of such assays
[27] = molecular target: HLA-A*03:01; assay: as above
[28] = molecular target: HLA-A*24:02; assay: as above
[29] = molecular target: HLA-B*51:01; assay: IEDB peptide-MHC binding, purified MHC/competitive/fluorescence; filed as Kd, often an IC50 or EC50 that approximates it; ≥ and ≤ were set here for values at or beyond the usual limits of such assays; conditions: source organism: Cryptosporidium parvum Iowa II
[30] = molecular target: HLA-A*02:19; assay: as above; conditions: source organism: Cryptosporidium parvum Iowa II
[31] = molecular target: HLA-B*46:01; assay: as above; conditions: source organism: Cryptosporidium parvum Iowa II
[32] = molecular target: HLA-A*26:01; assay: as above; conditions: source organism: Cryptosporidium parvum Iowa II
[33] = molecular target: HLA-A*29:02; assay: as above
[34] = molecular target: HLA-A*02:12; assay: as above; conditions: source organism: Cryptosporidium parvum Iowa II
[35] = molecular target: HLA-B*18:01; assay: as above; conditions: source organism: Cryptosporidium parvum Iowa II
[36] = molecular target: HLA-B*39:01; assay: as above; conditions: source organism: Cryptosporidium parvum Iowa II
[37] = molecular target: HLA-A*03:01; assay: as above; conditions: source organism: Cryptosporidium parvum Iowa II
[38] = molecular target: HLA-B*27:03; assay: as above; conditions: source organism: Cryptosporidium parvum Iowa II
[39] = molecular target: HLA-B*15:01; assay: IEDB peptide-MHC binding, purified MHC/competitive/fluorescence; ≥ and ≤ were set here for values at or beyond the usual limits of such assays
[40] = molecular target: HLA-A*02:01; assay: as above
[41] = molecular target: HLA-C*15:02; assay: IEDB peptide-MHC binding, purified MHC/direct/fluorescence; filed as Kd, often an IC50 or EC50 that approximates it; ≥ and ≤ were set here for values at or beyond the usual limits of such assays
[42] = molecular target: HLA-A*24:03; assay: as above; conditions: source organism: Vibrio cholerae
[43] = molecular target: HLA-C*14:02; assay: as above
[44] = source organism: Zaire ebolavirus
[45] = source organism: Dengue virus 3 Sri Lanka/1266/2000
[46] = source organism: Vaccinia virus WR
[47] = source organism: Sudan ebolavirus
[48] = source organism: Dengue virus 2 Jamaica/1409/1983
[49] = source organism: Vibrio cholerae 2740-80
[50] = source organism: Clostridium botulinum A str. ATCC 3502

Sequence: ADDETSSLP
- IC50 [1, 44]: ≥ 174 µM

Sequence: CLMMILPAA
- Kd [2, 45]: 1.07 µM
- Kd [3, 45]: 0.00121 µM
- Kd [4, 45]: 0.438 µM
- Kd [5]: 0.00105 µM

Sequence: DILASIIDY
- Kd [6]: 0.299 µM
- Kd [7]: ≥ 20 µM
- Kd [8]: ≥ 20 µM
- Kd [9]: ≥ 20 µM
- Kd [10]: ≥ 20 µM
- Kd [11]: ≥ 20 µM
- Kd [12]: ≥ 20 µM
- Kd [13]: ≥ 20 µM
- Kd [14]: 0.361 µM
- Kd [15]: ≥ 20 µM
- Kd [16]: ≥ 20 µM
- Kd [17]: ≥ 20 µM
- Kd [18]: ≥ 20 µM
- Kd [19]: ≥ 20 µM
- Kd ([20]; source organism: Variola virus): ≥ 20 µM
- Kd [21]: 1.85 µM

Sequence: EIKDRILSY
- Kd [22]: 0.116 µM
- Kd [23]: ≥ 20.5 µM
- Kd [6]: 0.63 µM
- Kd [8]: ≥ 20 µM
- Kd [9]: ≥ 20 µM
- Kd [10]: ≥ 20 µM
- Kd [11]: ≥ 20 µM
- Kd [12]: ≥ 20 µM
- Kd [14]: 0.003 µM
- Kd [15]: ≥ 20 µM
- Kd [16]: ≥ 20 µM
- Kd [17]: ≥ 20 µM
- Kd [18]: ≥ 20 µM
- Kd [19]: ≥ 20 µM
- Kd [24, 46]: 2.02 µM
- Kd [25]: 0.165 µM
- Kd [20, 46]: ≥ 20 µM

Sequence: FVFTLTVPSER
- Kd ([20]; source organism: Influenza A virus (A/swine/Hannover/1/1981(H1N1))): 2.84 µM

Sequence: IFSAWISHR
- IC50 ([26]; source organism: Variola virus): ≥ 70.7 µM
- IC50 ([1]; source organism: Variola virus): ≥ 577 µM
- IC50 ([27]; source organism: Variola virus): 1.01 µM
- IC50 ([28]; source organism: Variola virus): 0.0409 µM

Sequence: KIVPLPPMY
- Kd [29]: ≥ 20 µM
- Kd [30]: ≥ 20 µM
- Kd [31]: ≥ 20 µM
- Kd [32]: ≥ 20 µM
- Kd ([33]; source organism: Cryptosporidium parvum Iowa II): 0.277 µM
- Kd [34]: ≥ 20 µM
- Kd [35]: ≥ 20 µM
- Kd [36]: ≥ 20 µM
- Kd [37]: 0.796 µM
- Kd [38]: ≥ 20 µM

Sequence: KLFLESGAV
- IC50 [39, 44]: ≥ 81.3 µM
- IC50 [40, 44]: 1.76 µM
- IC50 [27, 44]: ≥ 280 µM
- IC50 [28, 44]: ≥ 184 µM

Sequence: KLYLVDYGL
- IC50 [39, 46]: 35.7 µM
- IC50 [27, 46]: ≥ 130 µM
- IC50 [28, 46]: 16.5 µM

Sequence: KQDRSDGYF
- IC50 ([39]; source organism: Vaccinia virus Copenhagen): 60.3 µM

Sequence: LFKIDNNTF
- IC50 [39, 47]: 14.4 µM
- IC50 [28, 47]: 0.0253 µM

Sequence: LMGLGKGWPL
- Kd [2, 48]: 0.304 µM
- Kd [3, 48]: 0.162 µM
- Kd [4, 48]: 0.917 µM

Sequence: LQVSDVDKL
- IC50 [39, 44]: ≥ 75.8 µM
- IC50 [40, 44]: 5.69 µM

Sequence: LYKSINVEY
- IC50 [39, 46]: 7.65 µM
- IC50 [28, 46]: 0.11 µM

Sequence: QARRMVQAM
- Kd ([24]; source organism: Influenza A virus (A/Wellington/8/2004(H3N2))): 0.0863 µM

Sequence: QLNDTIHLH
- IC50 [39, 47]: 53.1 µM
- IC50 [40, 47]: 39.9 µM
- IC50 [26, 47]: 6.06 µM
- IC50 [27, 47]: 50.4 µM

Sequence: RFNNLTVYF
- Kd [41, 49]: ≥ 20 µM
- Kd [42]: 0.0033 µM
- Kd [43, 49]: 2.86 µM

Sequence: RPIQNVPGP
- IC50 [40, 44]: ≥ 465 µM
- IC50 [1, 44]: 28.7 µM

Sequence: RPQKIWMAP
- IC50 [1, 44]: 7.1 µM

Sequence: SNRTPTVAP
- IC50 [40, 44]: ≥ 189 µM
- IC50 [1, 44]: 41.5 µM
- IC50 [28, 44]: ≥ 94.2 µM

Sequence: SPGMVPLHI
- IC50 [1, 47]: 6.66 µM
- IC50 [28, 47]: 24.4 µM

Sequence: VIILFQRTF
- IC50 [39, 44]: ≥ 85.9 µM
- IC50 [40, 44]: ≥ 818 µM
- IC50 [28, 44]: 0.0558 µM

Sequence: YMIGYTAYY
- Kd [41, 50]: 4.02 µM
- Kd [43, 50]: ≤ 0.001 µM
- Kd [33, 50]: ≤ 0.0001 µM

— the Immune Epitope Database (IEDB)
